Values quoted from earlier work, collected in patent US20120128767A1, “THERAPEUTIC CALCIUM PHOSPHATE PARTICLES AND METHODS OF MAKING AND USING SAME” (priority 2008, published 2012).
Where two headings read alike, the source gives them in different places.

insulin
absorption efficiency (insulin added to preformed calcium phosphate particles): about 40% | absorption efficiency (insulin mixed during the particle formation): about 89%
